{"source": "paper PMC6648343", "about": "“Remodeling and destabilization of chromosome 1 pericentromeric heterochromatin by SSX proteins” (Nucleic Acids Research, 2019)", "proteins": {"B1": {"name": "recombinant SSX2 (natural protein, UniProt Q16385 1-188, looked up)", "chain": "MNGDDAFARRPTVGAQIPEKIQKAFDDIAKYFSKEEWEKMKASEKIFYVYMKRKYEAMTKLGFKATLPPFMCNKRAEDFQGNDLDNDPNRGNQVERPQMTFGRLQGISPKIMPKKPAEEGNDSEEVPEASGPQNDGKELCPPGKPTTSEKIHERSGPKRGEHAWTHRLRERKQLVIYEEISDPEEDDE", "notes": "SSX2; GenBank CAA60111.1 is printed for SSX2 in the structure modelling; also called recombinant, purified SSX2; source: recombinant, purified"}}, "target": "the molecule itself", "assay": "cross-linking; recombinant SSX2 diluted to indicated concentrations in 20 mM PBS (pH 7.4), 50 mM NaCl; 0.1% glutaraldehyde, 2 min at 37°C, quenched with glycine; oligomerization analysed by Western blotting", "data": [{"protein": "B1", "values": [{"measurement": "binding result", "result": "binds"}]}]}
